Measured values reported in US6835382B2, “Ii peptide therapeutics to enhance antigen presentation” (University of Massachusetts, priority 1996, dated 2004).
Non-standard residues stand in square brackets, D forms with d. Hyp = O=C(O)[C@@H]1C[C@@H](O)CN1

T1: murine E^d MHC class II allele (Mus musculus, UniProt P01904+P01915)
T1 sequence (P01904 26-255): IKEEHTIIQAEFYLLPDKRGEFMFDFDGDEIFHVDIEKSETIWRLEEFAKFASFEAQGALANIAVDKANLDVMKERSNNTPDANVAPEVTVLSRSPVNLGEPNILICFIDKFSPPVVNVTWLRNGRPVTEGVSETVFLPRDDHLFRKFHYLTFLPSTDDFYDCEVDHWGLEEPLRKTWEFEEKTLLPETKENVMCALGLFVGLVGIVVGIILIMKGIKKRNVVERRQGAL
T1 sequence (P01915 27-264 limits assumed): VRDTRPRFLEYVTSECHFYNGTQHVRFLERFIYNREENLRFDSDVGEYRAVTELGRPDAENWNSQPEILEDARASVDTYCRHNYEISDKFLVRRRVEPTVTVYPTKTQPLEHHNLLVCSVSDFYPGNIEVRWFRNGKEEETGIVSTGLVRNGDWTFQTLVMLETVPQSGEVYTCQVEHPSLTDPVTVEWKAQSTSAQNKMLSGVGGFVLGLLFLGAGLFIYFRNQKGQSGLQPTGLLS

B1: AE206 (peptide)
peptide: Ac-LRLKLPK-NH2
B2: AE101 (peptide)
peptide: YRMKLPKSAKPVSQMR
B3: AE143 (peptide)
peptide: Ac-YRMKL[Hyp]KSAK-NH2
SMILES: CSCC[C@H](NC(=O)[C@H](CCCNC(=N)N)NC(=O)[C@H](Cc1ccc(O)cc1)NC(C)=O)C(=O)N[C@@H](CCCCN)C(=O)N[C@@H](CC(C)C)C(=O)N1C[C@H](O)C[C@H]1C(=O)N[C@@H](CCCCN)C(=O)N[C@@H](CO)C(=O)N[C@@H](C)C(=O)N[C@@H](CCCCN)C(N)=O
B4: AE108 (peptide)
peptide: YRMKLPKSAK
B5: AE381 (peptide)
peptide: LRMKLPK
modifications: head-to-tail cyclization: the amino terminal amino group is coupled through an amide linkage to the carboxyl terminal group
B6: AE235 (peptide)
peptide: Ac-LRMKYPK-NH2

Legend:
[1] = test system: murine E^k MHC class II allele; experiment: AE101 series peptide prepulse assay, E^k allele; assay type: cell-based; settings: Table 35; AE101 series peptide prepulse 64 μM; antigenic peptide 0.4 μM; supernatant dilution 1:2
Description: (§1) Table 35: Activities of multiple substitution analogs of AE235, targeting the E^k and E^d allele, in an AE101 series peptide prepulse assay. In this assay the concentration of AE101 series peptides used during the prepulse was 64 μM. The concentrations of antigenic peptides were 0.3 μM for Ed and 0.4 μM for E^k. The supernatant dilutions taken into the HT-2 cell assay was 1:4 for E and 1:2 for E^k. The AE381 peptide is a head-to-tail cyclization: the amino terminal amino group is coupled through an amide linkage to the carboxyl terminal group. The AE 382 peptide is a side-to-tail cyclization: the epsilon amino group of Lys^4 is coupled through an amide linkage to the carboxyl terminal group.
(§2) AE101 series peptide prepulse assays were carried out in the E^d and E^k systems as described for simultaneous competition assays with the following modifications. Fixed APC were first incubated for 6 h at 1×10^6DMEM-5% FCS with 64 μM of each AE101 series peptide or with PBS. The APC were then washed four times with ten volumes of DMEM-5% FCS, and were cocultured with T hybridoma cells and the indicated submaximal doses of antigenic peptides used in the simultaneous competition assays. The baseline T cell response was measured by culturing T hybridoma cells with antigenic peptide and PBS-pretreated APC.

[2] = test system: murine E^k MHC class II allele; experiment: simultaneous assay, E^k allele (CH27 APC, TPc9.1 T hybridoma, THMCC82-103 or PGCC81-104); assay type: cell-based; settings: Table 12, supernatant 1:4
Method in brief: (§3)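 Antigenic peptide, mitomycin C-treated APC, effector compound and allele-restricted T hybridoma cultured together for 24 h. Supernatant then transferred to interleukin-dependent HT-2 cells. T cell activation quantified as [3H]TdR uptake by HT-2 cells.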

[3] = target: T1, murine E^d MHC class II allele; experiment: simultaneous assay, E^d allele (A20 APC, G28.C9 T hybridoma, HEL106-116; HT-2 [3H]TdR readout); assay type: cell-based; parameters: The A20 and CH27 B cell lymphoma lines express H-2^d and H-2^k alleles, respectively; endogenous in cells; host or cells: A20 B cell lymphoma (mitomycin C-treated or paraformaldehyde-fixed); settings: Table 12, supernatant 1:2
Method in brief: as §3

[4] = target: T1, murine E^d MHC class II allele; experiment: AE101 series peptide prepulse assay, E^d allele; assay type: cell-based; settings: Table 35; AE101 series peptide prepulse 64 μM; antigenic peptide 0.3 μM; supernatant dilution 1:4
Description: as §1, §2

[5] = target: soluble HLA-DR1 (HLA-DR alpha truncated after Asn192 with a C-terminal nine amino acid HA epitope tail; HLA-DR1 beta truncated after Lys198), made in Baculovirus-infected insect cells (human); experiment: exchange ELISA: tethered HLA-DR1 preloaded with unlabeled hMBP(90-102) 50 uM, washed; biotin-hMBP(90-102) 50 uM alone, no AE peptide, 1 h 37 C
[6] = target: soluble HLA-DR1 (HLA-DR alpha truncated after Asn192 with a C-terminal nine amino acid HA epitope tail; HLA-DR1 beta truncated after Lys198), made in Baculovirus-infected insect cells (human); experiment: release ELISA as Table 36; unlabeled hMBP(90-102) 250 uM alone against prebound biotin-hMBP(90-102) on tethered HLA-DR1
[7] = target: soluble HLA-DR1 (HLA-DR alpha truncated after Asn192 with a C-terminal nine amino acid HA epitope tail; HLA-DR1 beta truncated after Lys198), made in Baculovirus-infected insect cells (human); experiment: release ELISA as Table 36 (biotin-hMBP(90-102) left on tethered HLA-DR1); AE peptide 64 uM, without unlabeled hMBP(90-102)
[8] = target: soluble HLA-DR1 (HLA-DR alpha truncated after Asn192 with a C-terminal nine amino acid HA epitope tail; HLA-DR1 beta truncated after Lys198), made in Baculovirus-infected insect cells (human); experiment: exchange ELISA: tethered HLA-DR1 preloaded with unlabeled hMBP(90-102) 50 uM, washed; AE peptide plus biotin-hMBP(90-102) 50 uM, 1 h 37 C; biotin bound as fraction of positive control (overnight loading)
[9] = target: soluble HLA-DR1 (HLA-DR alpha truncated after Asn192 with a C-terminal nine amino acid HA epitope tail; HLA-DR1 beta truncated after Lys198), made in Baculovirus-infected insect cells (human); experiment: release ELISA as Table 36 (biotin-hMBP(90-102) left on tethered HLA-DR1); AE peptide 1 uM, without unlabeled hMBP(90-102)
[10] = target: soluble HLA-DR1 (HLA-DR alpha truncated after Asn192 with a C-terminal nine amino acid HA epitope tail; HLA-DR1 beta truncated after Lys198), made in Baculovirus-infected insect cells (human); experiment: loading ELISA: empty tethered HLA-DR1 with biotin-hMBP(90-102) 50 uM and AE peptide 64 uM, 1 h 37 C; biotin bound read by avidin-HRP
[11] = target: soluble HLA-DR1 (HLA-DR alpha truncated after Asn192 with a C-terminal nine amino acid HA epitope tail; HLA-DR1 beta truncated after Lys198), made in Baculovirus-infected insect cells (human); experiment: release ELISA as Table 36 (biotin-hMBP(90-102) left on tethered HLA-DR1); AE peptide 1 uM, with unlabeled hMBP(90-102) 250 uM
[12] = target: soluble HLA-DR1 (HLA-DR alpha truncated after Asn192 with a C-terminal nine amino acid HA epitope tail; HLA-DR1 beta truncated after Lys198), made in Baculovirus-infected insect cells (human); experiment: release ELISA as Table 36 (biotin-hMBP(90-102) left on tethered HLA-DR1); AE peptide 64 uM, with unlabeled hMBP(90-102) 250 uM
[13] = target: soluble HLA-DR1 (HLA-DR alpha truncated after Asn192 with a C-terminal nine amino acid HA epitope tail; HLA-DR1 beta truncated after Lys198), made in Baculovirus-infected insect cells (human); experiment: release ELISA: soluble HLA-DR1 tethered by 12CA5 and preloaded with biotin-hMBP(90-102); AE peptide 64 uM, 1 h 37 C, no unlabeled peptide; biotin still bound read by avidin-HRP (1.0 = PBS control, 0.0 = no DR1; low value = released)
[14] = target: soluble HLA-DR1 (HLA-DR alpha truncated after Asn192 with a C-terminal nine amino acid HA epitope tail; HLA-DR1 beta truncated after Lys198), made in Baculovirus-infected insect cells (human); experiment: release ELISA as Table 36; AE101 1 uM, without unlabeled hMBP(90-102)
[15] = AE peptide 16 μM (second value)

| Molecule | Relative Release (fraction of positive control o.d.) [7] | Relative Binding (of biotin-hMBP(90-102) to HLA-DR1) (fraction of positive control o.d.) [8] | Relative Release (fraction of positive control o.d.) [9] | Relative Enhancement (of biotin-hMBP(90-102) binding to empty HLA-DR1) (relative to no AE peptide = 1) [10] | Relative Release (fraction of positive control o.d.) [11] | Relative Release (fraction of positive control o.d.) [12] | Relative Release (fraction of positive control o.d.) [13] | further results |
| --- | --- | --- | --- | --- | --- | --- | --- | --- |
| Ac-LRMKlpk-NH2 [AE172] |  |  |  |  |  |  |  | T cell response relative to baseline with PBS-pretreated APC (NONE = 1.0), E^k [1]: 2.1; Times Baseline Response, E^k ([2]; AE peptide 1 μM (fourth value)): 2.8; Times Baseline Response, E^k ([2]; AE peptide 4 μM (third value)): 4.2; Times Baseline Response, E^k [2, 15]: 21.1; Times Baseline Response, E^k ([2]; AE peptide 64 μM (first value)): 46.2; Times Baseline Response, E^d ([3]; AE peptide 1 μM (fourth value)): 2; Times Baseline Response, E^d ([3]; AE peptide 4 μM (third value)): 2; Times Baseline Response, E^d [3, 15]: 7; Times Baseline Response, E^d ([3]; AE peptide 64 μM (first value)): 54; T cell response relative to baseline with PBS-pretreated APC (NONE = 1.0), E^d [4]: 1.1 |
| N-terminally biotin-labeled human myelin basic protein peptide hMBP(90-102) (from UniProt P02686 90-102) |  |  |  |  |  |  |  | Relative Binding (fraction of positive control o.d.) [5]: 0.08 |
| unlabeled human myelin basic protein peptide hMBP(90-102) (from UniProt P02686 90-102) |  |  |  |  |  |  |  | Relative Release (fraction of positive control o.d.) [6]: 0.81 |
| B1 | 0.08 | -0.13 | 0.58 | 2.57 | 0.03 | -0.29 |  |  |
| B2 |  | 0.31 |  | 2.66 |  |  | -0.33 | Relative Release (fraction of positive control o.d.) [14]: 0.02 |
| B3 | 0.58 |  | 0.51 |  | 0.35 | 0.21 |  |  |
| B4 | 0.31 |  | 0.52 |  | 0 | 0.14 | 1.14 |  |
| B5 | 0.5 | -0.12 | 0.64 | 1.84 | 0.09 | -0.19 |  |  |
| B6 | 0.81 | 0.15 | 1.05 | 0.61 | 0.48 | 0.6 | 0.79 |  |
